According to patent publication US20260109758A1 (BIOSION, published 2026):
Read-outs that look alike come from different tables or passages of the source.

Assays:
[1] = molecular target: T1, recombinant human TSLP-his (human, UniProt Q969D9 29-159, biotin-labeled in the ELISAs); assay: capture ELISA: antibody captured on anti-human IgG Fc F(ab')2, biotin human TSLP-his, SA-HRP
T1 construct: In-house made; not shown: His tag at the C-terminus
Procedure: (§1) Briefly, 96-well micro plates were coated with 100 μL 2 μg/mL AffiniPure F(ab′)₂ Fragment Goat Anti-Human IgG, Fey fragment specific (Jackson Immuno Research, Cat #109-006-008) in PBS and incubated overnight at 4° C. Plates were washed 4 times with wash buffer (PBS+0.05% Tween-20, PBST) and then blocked with 200 μL/well blocking buffer (5% w/v non-fatty milk in PBST) for 2 hours at 37° C. […] After the final wash, the plates were incubated with 100 μL/well TMB (Innoreagents). The reaction was stopped 15 minutes later at room temperature with 50 μL/well 1M H₂SO₄, and the absorbance of each well was read on a microplate reader using dual wavelength mode with 450 nm for TMB and 630 nm as the reference wavelength. The OD (450-630) values were plotted against antibody concentration. Data was analyzed using Graphpad Prism and EC₅₀ values were reported.

[2] = molecular target: T1, recombinant human TSLP-his; assay: as above; remark: listed apart in the source
Procedure: as §1

[3] = molecular target: T1, recombinant human TSLP-his; assay: SPR Biacore; TSLP-his amine-coupled to CM5 chip, antibody as analyte; 1:1 Langmuir fit
Procedure: Un-reacted moieties on the biosensor surface were blocked with ethanolamine. Then, serially diluted purified bispecific antibodies and the controls (2-fold serial dilution in HBS-EP⁺ buffer starting at 100 nM) were respectively flowed onto the chip at a flow rate of 30 μL/min. The antigen-antibody association kinetics was followed for 4 minutes and the dissociation kinetics was followed for 13 minutes.

B1: hu1C5F12E9-V8(IgG1) (antibody)
heavy: QVQLVQSGAEVKKPGASVKVSCKASGYTFTTYWMHWVRQAPGQGLEWMGVIDPSDSDTTYNQKFKGRVTMTRDTSTSTVYMELSSLRSEDTAVYYCTRSLDGYYDYWGQGTLVTVSSASTKGPSVFPLAPSSKSTSGGTAALGCLVKDYFPEPVTVSWNSGALTSGVHTFPAVLQSSGLYSLSSVVTVPSSSLGTQTYICNVNHKPSNTKVDKKVEPKSCDKTHTCPPCPAPEAQGGPSVFLFPPKPKDTLYITREPEVTCVVVDVSHEDPEVKFNWYVDGVEVHNAKTKPREEQYNSTYRVVSVLTVLHQDWLNGKEYKCQVSNKALPAPIEKTISKAKGQPREPQVYTLPPSRDELTKNQVSLTCLVKGFYPSDIAVEWESNGQPENNYKTTPPVLDSDGSFFLYSKLTVDKSRWQQGNVFSCSVMHEALHNHYTQKSLSLSPG
light: DIQMTQSPSSLSASVGDRVTITCRPTENIYSYLAWYQQKPGKAPKLLIYFARTLAEGVPSRFSGSGSGTDFTLTISSLQPEDFATYYCQHHYGTPWTFGGGTKVEIKRTVAAPSVFIFPPSDEQLKSGTASVVCLLNNFYPREAKVQWKVDNALQSGNSQESVTEQDSKDSTYSLSSTLTLSKADYEKHKVYACEVTHQGLSSPVTKSFNRGEC
notes: Monospecific control, full-length IgG1; also called anti-TSLP hu1C5F12E9-V8
With B1 the EC50 [1] was 48.7 pM, the EC50 [2] was 51.1 pM and the Kd [3] was < 15.7 pM. The koff [3] was < 1e-05 s⁻¹ and the kon [3] was 636000 M⁻¹ s⁻¹.
